Test results reported in patent publication US8969053B2, “Mutant YqhD enzyme for the production of a biochemical by fermentation” (Metabolic Explorer, priority 2009, dated 2015).
“And” between values parts separate entries of the source, which are not always exact repeats. Equal entries are not always repeated.

What was measured:
YqhD (purified) = conditions: furfural reductase study, Miller et al (2009); read-out: Km value for NADPH; cited from earlier work
[1] = system: YqhD double mutant D99Q N147H; conditions: versus parent YqhD, Li et al, 2008; cited from earlier work
YqhD single mutant Q202A = conditions: versus parent YqhD, Li et al, 2008; cited from earlier work
[2] = substrate: CC(=O)C=O; assay: purified protein, by the assay type; conditions: other: methylglyoxal 1.3-30 mM, 0.2 mM NADPH, pH 7.5, 37° C.
[3] = substrate: NC(=O)C1=CN([C@@H]2O[C@H](COP(=O)(O)OP(=O)(O)OC[C@H]3O[C@@H](n4cnc5c(N)ncnc54)[C@H](OP(=O)(O)O)[C@@H]3O)[C@@H](O)[C@H]2O)C=CC1; assay: purified protein, by the assay type; conditions: other: NADPH 6-300 μM, 10 mM methylglyoxal, pH 7.5, 37° C.
Method: Kinetic constants (Km, kcat and kcat/Km) for the four purified enzymes (yqhD, yqhD*(G149E), yqhD*(G149S) and yqhD*(G149S A286T)) toward methylglyoxal were determined using the activity assay previously described. In this case the reaction was started by addition of the purified enzyme. Nine NADPH concentrations between 6 μM and 300 μM were analysed for each enzyme. For all kinetics, initial velocity was determined in triplicate for all co-factor concentrations.

[4] = Methylglyoxal reductase activity assay, kinetics of purified YqhD enzymes toward methylglyoxal; format: biochemical, E. coli; conditions: for Kinetic parameters (Km, kcat, kcat/Km) compared to the native protein / Specific activity compared to that of YqhD: in words
Method: (§1) Methylglyoxal reductase activity was assayed by measuring the initial rate of NADPH oxidation with a spectrophotometer at a wavelength of 340 nm and at a constant temperature of 37° C. The reaction mixture using methylglyoxal as substrate was carried out in 20 mM Hepes pH 7.5, 0.1 mM Zinc sulphate, 0.2 mM NADPH, 0.6 μg of purified enzyme in a final volume of 1 ml. The reaction mixture was incubated for 5 min at 37° C. and then the reaction was initiated by the addition of the substrate methylglyoxal at a final concentration of 10 mM. Control assay (blank), lacking the substrate was run in parallel and the value measured for the control was subtracted to the value measured for the assay to take into account non-specific oxidation of NADPH.
(§2) One unit of enzyme activity was defined as the amount of enzyme that consumed 1 μmol substrate per minute under the conditions of the assay. Specific enzyme activity was expressed as units per mg of protein.
(§3) Kinetic constants (Km, kcat and kcat/Km) for the four purified enzymes (yqhD, yqhD*(G149E), yqhD*(G149S) and yqhD*(G149S A286T)) toward methylglyoxal were determined using the activity assay previously described. In this case the reaction was started by addition of the purified enzyme. Seven methylglyoxal concentrations between 1.3 mM and 30 mM were analysed for each enzyme. For all kinetics, initial velocity was determined in triplicate for all substrate concentrations.
Kinetic constants (Km and Vmax) of each protein were determined with the module enzyme kinetics from the software Sigma Plot (Systat Software Inc, San Jose, Calif.). […] The different kinetic parameters of four YqhD enzymes were compiled in Table 6.

[5] = Inhibition of the YqhD enzymes by NADP+ (competitive inhibition model); format: biochemical, E. coli; conditions: NADP+ inhibition experiment, 20 mM methylglyoxal
Method: as §1
The NADP+ inhibition constant for three purified enzymes (yqhD, yqhD*(G149E) and yqhD*(G149S A286T)) were determined in the conditions described for the activity assay, excepted for the concentration of methylglyoxal that was increased to 20 mM. Enzyme kinetics with regards to NADPH were realised with increasing concentration of NADPH between 50 and 200 μM. Five concentrations of the inhibitor NADP+ were used (0-0.05-0.1-0.2-0.5 mM) and the kinetics were recorded for each condition of inhibition. The NADP+ inhibition constant (Ki) of each protein was determined with the module enzyme kinetic from the software Sigma Plot (Systat Software Inc, San Jose, Calif.). A model of competitive inhibition was fitted by the software.

[6] = Methylglyoxal reductase activity assay, kinetics of purified YqhD enzymes toward co-factor NADPH; format: biochemical, E. coli
Method: as §1, §2
as §3, with “Nine NADPH” for “Seven methylglyoxal”, “6 μM” for “1.3 mM”, “300 μM” for “30 mM”, “co-factor” for “substrate”
Kinetic constants (Km and Vmax) of each protein were determined with the module enzyme kinetics from the software Sigma Plot (Systat Software Inc, San Jose, Calif.). […] The different kinetic parameters of four YqhD enzymes were compiled in Table 7.

Molecule	Km (YqhD (purified))	affinity (Km) for 3-HPA [1]	catalytic efficiency (Kcat/Km) for 3-HPA [1]	affinity (Km) for 3-HPA (YqhD single mutant Q202A)	catalytic efficiency (Kcat/Km) for 3-HPA (YqhD single mutant Q202A)	Km [2]	kcat [2]	kcat/Km [2]	Km [3]	kcat [3]	kcat/Km [3]	Specific activity [4]	Specific activity as share of the specific activity of YqhD [4]	Kinetic parameters (Km, kcat, kcat/Km) compared to the native protein [4]	Specific activity [5]	Specific activity [6]	Specific activity compared to that of YqhD [4]
NC(=O)C1=CN([C@@H]2O[C@H](COP(=O)(O)OP(=O)(O)OC[C@H]3O[C@@H](n4cnc5c(N)ncnc54)[C@H](OP(=O)(O)O)[C@@H]3O)[C@@H](O)[C@H]2O)C=CC1 [NADPH]	8 µM	–	–	–	–	–	–	–	–	–	–	–	–	–	–	–	–
O=CCCO [3-HPA, 3-hydroxypropionaldehyde]	–	improved affinity (lower Km)	improved catalytic efficiency	improved affinity (lower Km)	improved catalytic efficiency	–	–	–	–	–	–	–	–	–	–	–	–
E. coli YqhD variant YqhD*(G149S A286T) (Escherichia coli K-12; A286T/G149S) (protein) MNNFNLHTPTRILFGKGAIAGLREQIPHDARVLITYGGGSVKKTGVLDQVLDALKGMDVLEFGGIEPNPAYETLMNAVKLVREQKVTFLLAVGGGSVLDGTKFIAAAANYPENIDPWHILQTGGKEIKSAIPMGCVLTLPATGSESNASAVISRKTTGDKQAFHSAHVQPVFAVLDPVYTYTLPPRQVANGVVDAFVHTVEQYVTKPVDAKIQDRFAEGILLTLIEDGPKALKEPENYDVRANVMWAATQALNGLIGAGVPQDWATHMLGHELTAMHGLDHAQTLTIVLPALWNEKRDTKRAKLLQYAERVWNITEGSDDERIDAAIAATRNFFEQLGVPTHLSDYGLDGSSIPALLKKLEEHGMTQLGENHDITLDVSRRIYEAAR	–	–	–	–	–	3280 ± 380 µM	1.89 ± 0.07 s⁻¹	577 ± 88 M⁻¹ s⁻¹	20 ± 2.2 µM	2.2 ± 0.1 s⁻¹	1.22 E+05 M−1s−1 and 1.13E+05 ± 1.3E+04 M−1s−1	2.69 ± 0.10 µmol/min/mg	69%	identical to the native protein	5.25 ± 0.183 µmol/min/mg	3.17 ± 0.02 µmol/min/mg	–
E. coli YqhD variant YqhD*(G149E) (Escherichia coli K-12; G149E) (protein) MNNFNLHTPTRILFGKGAIAGLREQIPHDARVLITYGGGSVKKTGVLDQVLDALKGMDVLEFGGIEPNPAYETLMNAVKLVREQKVTFLLAVGGGSVLDGTKFIAAAANYPENIDPWHILQTGGKEIKSAIPMGCVLTLPATGSESNAEAVISRKTTGDKQAFHSAHVQPVFAVLDPVYTYTLPPRQVANGVVDAFVHTVEQYVTKPVDAKIQDRFAEGILLTLIEDGPKALKEPENYDVRANVMWAATQALNGLIGAGVPQDWATHMLGHELTAMHGLDHAQTLAIVLPALWNEKRDTKRAKLLQYAERVWNITEGSDDERIDAAIAATRNFFEQLGVPTHLSDYGLDGSSIPALLKKLEEHGMTQLGENHDITLDVSRRIYEAAR	–	–	–	–	–	7800 ± 790 µM	5.38 ± 0.21 s⁻¹	689 ± 98 M⁻¹ s⁻¹	28 ± 1.8 µM	3.4 ± 0.1 s⁻¹	122000 ± 9800 M⁻¹ s⁻¹	7.65 ± 0.31 µmol/min/mg	–	–	5.53 ± 0.292 µmol/min/mg	4.86 ± 0.08 µmol/min/mg	almost doubled
E. coli YqhD variant YqhD*(G149S) (Escherichia coli K-12; G149S) (protein) MNNFNLHTPTRILFGKGAIAGLREQIPHDARVLITYGGGSVKKTGVLDQVLDALKGMDVLEFGGIEPNPAYETLMNAVKLVREQKVTFLLAVGGGSVLDGTKFIAAAANYPENIDPWHILQTGGKEIKSAIPMGCVLTLPATGSESNASAVISRKTTGDKQAFHSAHVQPVFAVLDPVYTYTLPPRQVANGVVDAFVHTVEQYVTKPVDAKIQDRFAEGILLTLIEDGPKALKEPENYDVRANVMWAATQALNGLIGAGVPQDWATHMLGHELTAMHGLDHAQTLAIVLPALWNEKRDTKRAKLLQYAERVWNITEGSDDERIDAAIAATRNFFEQLGVPTHLSDYGLDGSSIPALLKKLEEHGMTQLGENHDITLDVSRRIYEAAR	–	–	–	–	–	3370 ± 340 µM	2.67 ± 0.09 s⁻¹	792 ± 105 M⁻¹ s⁻¹	22 ± 3.7 µM	2.7 ± 0.1 s⁻¹	122000 ± 25000 M⁻¹ s⁻¹	3.80 ± 0.12 µmol/min/mg	–	identical to the native protein	–	3.78 ± 0.15 µmol/min/mg	similar
Escherichia coli MG1655 YqhD, native (wild type), SEQ ID NO: 56 (Escherichia coli K-12) (protein) MNNFNLHTPTRILFGKGAIAGLREQIPHDARVLITYGGGSVKKTGVLDQVLDALKGMDVLEFGGIEPNPAYETLMNAVKLVREQKVTFLLAVGGGSVLDGTKFIAAAANYPENIDPWHILQTGGKEIKSAIPMGCVLTLPATGSESNAGAVISRKTTGDKQAFHSAHVQPVFAVLDPVYTYTLPPRQVANGVVDAFVHTVEQYVTKPVDAKIQDRFAEGILLTLIEDGPKALKEPENYDVRANVMWAATQALNGLIGAGVPQDWATHMLGHELTAMHGLDHAQTLAIVLPALWNEKRDTKRAKLLQYAERVWNITEGSDDERIDAAIAATRNFFEQLGVPTHLSDYGLDGSSIPALLKKLEEHGMTQLGENHDITLDVSRRIYEAAR	–	–	–	–	–	4810 ± 410 µM	2.74 ± 0.08 s⁻¹	570 ± 65 M⁻¹ s⁻¹	32 ± 4.2 µM	2.1 ± 0.1 s⁻¹	66000 ± 11000 M⁻¹ s⁻¹	3.91 ± 0.11 µmol/min/mg	–	–	3.63 ± 0.284 µmol/min/mg	2.99 ± 0.1 µmol/min/mg	–
